Assays:
[1] = molecular target: T1, GFP-KLF4 (eGFP fused to full-length mouse Kruppel like factor 4) (mouse, UniProt Q60793 1-483); test: co-IP; HeLa cells co-expressing GFP, GFP-KLF4 or GFP-SP1 with DSRED-IPO13; treated with or without 125 uM H2O2 for 1 h before lysis; lysates with or without GTPgammaS (1.7 mM, 20 min on ice); precipitated with GFP-Trap resin; Western blot with anti-GFP and anti-IPO13; conditions: partners not purified
T1 construct: Kruppel like factor 4 (KLF4), mouse, full length; inserted in-frame at BamHI and HindIII of pEGFP-C1, C-terminal to eGFP; also called GFP-tagged KLF4; source: HeLa, transfected (pEGFP-C1 construct), in lysate; not shown: eGFP, N-terminal, kept
T1 sequence (Q60793 whole entry, the tested form may be a part): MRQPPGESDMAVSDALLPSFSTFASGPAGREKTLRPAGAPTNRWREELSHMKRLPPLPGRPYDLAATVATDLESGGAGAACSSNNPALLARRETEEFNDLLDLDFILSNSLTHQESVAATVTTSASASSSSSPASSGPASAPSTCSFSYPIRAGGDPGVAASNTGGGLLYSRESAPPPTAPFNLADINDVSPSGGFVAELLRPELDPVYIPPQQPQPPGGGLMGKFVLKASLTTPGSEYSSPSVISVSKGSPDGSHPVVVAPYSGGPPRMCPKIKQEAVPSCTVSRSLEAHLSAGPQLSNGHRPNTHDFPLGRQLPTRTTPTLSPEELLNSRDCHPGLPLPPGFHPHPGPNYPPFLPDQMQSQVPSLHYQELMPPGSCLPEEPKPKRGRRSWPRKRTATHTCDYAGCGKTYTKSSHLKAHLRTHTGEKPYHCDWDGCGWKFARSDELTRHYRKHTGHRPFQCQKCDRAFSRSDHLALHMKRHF

[2] = molecular target: T2, GFP-SP1 (GFP fused to specificity protein 1) (UniProt P08047 1-785); test: as above; conditions: partners not purified
T2 construct: Specificity protein 1 (SP1); plasmid from Jan-Jong Hung (National Cheng Kung University, Taiwan); Construct was a gift; also called GFP-tagged SP1; source: HeLa, transfected, in lysate
T2 sequence (P08047 whole entry, the tested form may be a part): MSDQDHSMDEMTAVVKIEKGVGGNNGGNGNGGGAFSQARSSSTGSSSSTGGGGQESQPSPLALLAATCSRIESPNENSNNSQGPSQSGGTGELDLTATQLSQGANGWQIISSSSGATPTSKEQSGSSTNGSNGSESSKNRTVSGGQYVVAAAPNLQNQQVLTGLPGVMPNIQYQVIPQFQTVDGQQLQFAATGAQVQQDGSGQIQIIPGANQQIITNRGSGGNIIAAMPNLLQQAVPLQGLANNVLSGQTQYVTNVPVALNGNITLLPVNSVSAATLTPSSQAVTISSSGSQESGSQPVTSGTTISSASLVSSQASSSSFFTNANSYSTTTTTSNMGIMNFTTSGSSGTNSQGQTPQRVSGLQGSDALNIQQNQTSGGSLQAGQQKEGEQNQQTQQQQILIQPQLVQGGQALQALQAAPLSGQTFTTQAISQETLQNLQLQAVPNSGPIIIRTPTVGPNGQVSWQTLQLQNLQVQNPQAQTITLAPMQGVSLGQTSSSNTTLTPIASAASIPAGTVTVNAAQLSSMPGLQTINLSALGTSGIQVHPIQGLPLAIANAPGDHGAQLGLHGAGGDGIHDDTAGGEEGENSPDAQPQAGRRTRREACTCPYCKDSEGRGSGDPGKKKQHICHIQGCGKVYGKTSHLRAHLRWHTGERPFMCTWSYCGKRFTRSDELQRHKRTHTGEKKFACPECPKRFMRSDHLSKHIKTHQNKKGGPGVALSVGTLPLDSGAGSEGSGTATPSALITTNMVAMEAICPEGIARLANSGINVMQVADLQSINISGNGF

B1: DSRED-IPO13 (Importin-13 fused to the DsRed2 fluorescent protein) (natural protein, UniProt O94829 1-963, looked up)
chain: MERREEQPGAAGAGAAPALDFTVENVEKALHQLYYDPNIENKNLAQKWLMQAQVSPQAWHFSWQLLQPDKVPEIQYFGASALHIKISRYWSDIPTDQYESLKAQLFTQITRFASGSKIVLTRLCVALASLALSMMPDAWPCAVADMVRLFQAEDSPVDGQGRCLALLELLTVLPEEFQTSRLPQYRKGLVRTSLAVECGAVFPLLEQLLQQPSSPSCVRQKVLKCFSSWVQLEVPLQDCEALIQAAFAALQDSELFDSSVEAIVNAISQPDAQRYVNTLLKLIPLVLGLQEQLRQAVQNGDMETSHGICRIAVALGENHSRALLDQVEHWQSFLALVNMIMFCTGIPGHYPVNETTSSLTLTFWYTLQDDILSFEAEKQAVYQQVYRPVYFQLVDVLLHKAQFPSDEEYGFWSSDEKEQFRIYRVDISDTLMYVYEMLGAELLSNLYDKLGRLLTSSEEPYSWQHTEALLYGFQSIAETIDVNYSDVVPGLIGLIPRISISNVQLADTVMFTIGALSEWLADHPVMINSVLPLVLHALGNPELSVSSVSTLKKICRECKYDLPPYAANIVAVSQDVLMKQIHKTSQCMWLMQALGFLLSALQVEEILKNLHSLISPYIQQLEKLAEEIPNPSNKLAIVHILGLLSNLFTTLDISHHEDDHEGPELRKLPVPQGPNPVVVVLQQVFQLIQKVLSKWLNDAQVVEAVCAIFEKSVKTLLDDFAPMVPQLCEMLGRMYSTIPQASALDLTRQLVHIFAHEPAHFPPIEALFLLVTSVTLTLFQQGPRDHPDIVDSFMQLLAQALKRKPDLFLCERLDVKAVFQCAVLALKFPEAPTVKASCGFFTELLPRCGEVESVGKVVQEDGRMLLIAVLEAIGGQASRSLMDCFADILFALNKHCFSLLSMWIKEALQPPGFPSARLSPEQKDTFSQQILRERVNKRRVKEMVKEFTLLCRGLHGTDYTADY
notes: Importin-13 (IPO13); PCR generated IPO13 insert put into pDsRed2-C1 at EcoRI and SmaI; also called dsRed2-IPO13; DSRED-tagged IPO13; source: HeLa, transfected (pDsRed2-fused IPO13), in lysate
[1]
  fold increase in co-precipitation with GTPgammaS against no addition, H2O2 treated cells: ~2 fold
[2]
  fold increase in co-precipitation with GTPgammaS against no addition, H2O2 treated cells: ~2 fold
